Reference: the RNAGym collection of RNA variant scans (doi:10.7554/elife.80360)

B1: Hairpin Ribozyme (parent)
chain: GUCCUCUUUCACGUGCGCGUGAAAGAGAGAAGUGAACCAGAGAAACACACGUUGUGGUAUAUUACCUGGUA

Variants of: B1
Assay: self-cleavage, relative activity (ratio to wild type); higher = more cleavage; co-transcriptional
With GUCCUCUUUCACGUGCGCGUGAAAGAGAGAAGUGAGCCAGAGAAACACACGUUGUAGUAUAUUACCUGGUA [A36G G56A] the self-cleavage was 0.146.
GUCCUCUUUCACGUGCGCGUGAAAGAGAGAAGUGAGCCAGAAAAACACACGUUGUGGUAUAUUACCUGGUA [A36G G42A] gave a self-cleavage of 0.23.
GUCCUCUUUCACGUGCGCGUGAAAGAGAGAAGUGACCCAGAGAAACACACGUUGUGGUAAAUUACCUGGUA [A36C U60A] showed a self-cleavage of 0.439.
Variant GUCCUCUUUCACGUGCGCGUGAAAGAGAGAAGUGUACCAGACAAACACACGUUGUGGUAUAUUACCUGGUA [A35U G42C] has a self-cleavage of 0.246.
With GUCCUCUUUCACGUGCGCGUGAAAGAGAGAAGUGUACCAGAAAAACACACGUUGUGGUAUAUUACCUGGUA [A35U G42A] the self-cleavage was 0.181.
GUCCUCUUUCACGUGCGCGUGAAAGAGAGAAGUGACCCAGAGAAACGCACGUUGUGGUAUAUUACCUGGUA [A36C A47G] gave a self-cleavage of 0.0823.
GUCCUCUUUCACGUGCGCGUGAAAGAGAGAAGUGAGCCAGAGAAACACACGUUGUGGUAUAUUACCUGGUC [A36G A71C] showed a self-cleavage of 1.23.
With GUCCUCUUUCACGUGCGCGUGAAAGAGAGAAGUGACCCAGAGGAACACACGUUGUGGUAUAUUACCUGGUA [A36C A43G] the self-cleavage was 0.131.
Variant GUCCUCUUUCACGUGCGCGUGAAAGAGAGAAGUGACCCAGAGAAACACACGUUGUGGUAUGUUACCUGGUA [A36C A61G] has a self-cleavage of 0.148.
In the case of GUCCUCUUUCACGUGCGCGUGAAAGAGAGAAGUGUACCAGAGAAACACACGUUGUGGUAUAUUACCCGGUA [A35U U67C], the self-cleavage is reported as 0.176.
GUCCUCUUUCACGUGCGCGUGAAAGAGAGAAGUGACCCAGAGAAGCACACGUUGUGGUAUAUUACCUGGUA [A36C A45G] showed a self-cleavage of 0.133.
GUCCUCUUUCACGUGCGCGUGAAAGAGAGAAGUGACCCAGAGAAACACACGUUGUGGUAUAUGACCUGGUA [A36C U63G] showed a self-cleavage of 0.0757.
In the case of GUCCUCUUUCACGUGCGCGUGAAAGAGAGAAGUGUACCAGAGAAACACACGUUUUGGUAUAUUACCUGGUA [A35U G54U], the self-cleavage is reported as 0.455.
With GUCCUCUUUCACGUGCGCGUGAAAGAGAGAAGUGACCCAGAGAAAGACACGUUGUGGUAUAUUACCUGGUA [A36C C46G] the self-cleavage was 0.134.
Variant GUCCUCUUUCACGUGCGCGUGAAAGAGAGAAGUGACCCAGAGAAAUACACGUUGUGGUAUAUUACCUGGUA [A36C C46U] has a self-cleavage of 0.15.
Variant GUCCUCUUUCACGUGCGCGUGAAAGAGAGAAGUGUACCAGAGAAACACACGUUGUGGUAUAUUACCUGUUA [A35U G69U] has a self-cleavage of 0.111.
GUCCUCUUUCACGUGCGCGUGAAAGAGAGAAGUGUACCAGAGAAACACACGUUGUGGUAUAUUACCUGAUA [A35U G69A] showed a self-cleavage of 0.184.
For GUCCUCUUUCACGUGCGCGUGAAAGAGAGAAGUGUACCAGAGAAACACAGGUUGUGGUAUAUUACCUGGUA [A35U C50G], the self-cleavage was 0.369.
GUCCUCUUUCACGUGCGCGUGAAAGAGAGAAGUGUACCAGAGAAACACAAGUUGUGGUAUAUUACCUGGUA [A35U C50A] gave a self-cleavage of 0.295.
In the case of GUCCUCUUUCACGUGCGCGUGAAAGAGAGAAGUGUACCAGAGAAACACACGUUGUGGUAUAUUAACUGGUA [A35U C65A], the self-cleavage is reported as 0.625.
GUCCUCUUUCACGUGCGCGUGAAAGAGAGAAGUGUACCAGAGAAACACACGUUGUGGAAUAUUACCUGGUA [A35U U58A] showed a self-cleavage of 0.464.
Variant GUCCUCUUUCACGUGCGCGUGAAAGAGAGAAGUGACCCAGAGAAACACACGUUGUGGUAUAUUCCCUGGUA [A36C A64C] has a self-cleavage of 0.11.
GUCCUCUUUCACGUGCGCGUGAAAGAGAGAAGUGUACCAGAGAAACAAACGUUGUGGUAUAUUACCUGGUA [A35U C48A] showed a self-cleavage of 0.186.
GUCCUCUUUCACGUGCGCGUGAAAGAGAGAAGUGUACCAGAGAAACAUACGUUGUGGUAUAUUACCUGGUA [A35U C48U] gave a self-cleavage of 0.162.
GUCCUCUUUCACGUGCGCGUGAAAGAGAGAAGUGUACCAGAGAAACAGACGUUGUGGUAUAUUACCUGGUA [A35U C48G] gave a self-cleavage of 0.215.
In the case of GUCCUCUUUCACGUGCGCGUGAAAGAGAGAAGUGUACCAGAGAAACACACGUUGUGGUGUAUUACCUGGUA [A35U A59G], the self-cleavage is reported as 0.18.
Variant GUCCUCUUUCACGUGCGCGUGAAAGAGAGAAGUGACCCAGAGAAACACACUUUGUGGUAUAUUACCUGGUA [A36C G51U] has a self-cleavage of 0.678.
Variant GUCCUCUUUCACGUGCGCGUGAAAGAGAGAAGUGAGCCAGAGAAACACACGUUGUGGUAUAUUCCCUGGUA [A36G A64C] has a self-cleavage of 0.17.
In the case of GUCCUCUUUCACGUGCGCGUGAAAGAGAGAAGUGAGCUAGAGAAACACACGUUGUGGUAUAUUACCUGGUA [A36G C38U], the self-cleavage is reported as 0.523.
For GUCCUCUUUCACGUGCGCGUGAAAGAGAGAAGUGAGCAAGAGAAACACACGUUGUGGUAUAUUACCUGGUA [A36G C38A], the self-cleavage was 0.146.
With GUCCUCUUUCACGUGCGCGUGAAAGAGAGAAGUGUACCAGAGAAACACCCGUUGUGGUAUAUUACCUGGUA [A35U A49C] the self-cleavage was 0.17.
Variant GUCCUCUUUCACGUGCGCGUGAAAGAGAGAAGUGAGCCAGAGAAACAGACGUUGUGGUAUAUUACCUGGUA [A36G C48G] has a self-cleavage of 0.259.
With GUCCUCUUUCACGUGCGCGUGAAAGAGAGAAGUGACCCAGAGAAACACACGUUGUGGUAUAGUACCUGGUA [A36C U62G] the self-cleavage was 0.0267.
In the case of GUCCUCUUUCACGUGCGCGUGAAAGAGAGAAGUGACCCAGAGAAACACACGUUGUGGUAUACUACCUGGUA [A36C U62C], the self-cleavage is reported as 0.192.
GUCCUCUUUCACGUGCGCGUGAAAGAGAGAAGUGACCCAGAGAAACACACGUCGUGGUAUAUUACCUGGUA [A36C U53C] showed a self-cleavage of 0.953.
With GUCCUCUUUCACGUGCGCGUGAAAGAGAGAAGUGAGCCAGAGAAACACACGUUGUGGUAUAUUACUUGGUA [A36G C66U] the self-cleavage was 0.482.
GUCCUCUUUCACGUGCGCGUGAAAGAGAGAAGUGAGCCAGAGACACACACGUUGUGGUAUAUUACCUGGUA [A36G A44C] showed a self-cleavage of 0.0853.
For GUCCUCUUUCACGUGCGCGUGAAAGAGAGAAGUGAGCCAGAGAGACACACGUUGUGGUAUAUUACCUGGUA [A36G A44G], the self-cleavage was 0.276.
